{
  "source": "paper PMC9927262",
  "origin": "cited, not measured here",
  "key": {"[1]": {"target": "Spike RBD RBD (SARS-CoV-2) (UniProt P0DTC2)"}, "[2]": {"target": "Spike RBD RBD (SARS-CoV-2) (UniProt P0DTC2)", "remark": "listed apart in the source"}},
  "note": "Where two headings read alike, the source gives them in different places.",
  "data": [
    {"substance": "bamlanivimab", "values": [
      {"measurement": "Kd", "setting": "[1]", "result": 3.5, "unit": "nM"}
    ]},
    {"substance": "etesevimab", "values": [
      {"measurement": "Kd", "setting": "[2]", "result": 4.1, "unit": "nM"}
    ]}
  ]
}
